The target of this assay is Gp96 receptor (heat shock protein 90 kDa beta (Grp94 or Gp96), member 1 [Homo sapiens]) (Homo sapiens) (UniProt P14625). The experiment in a line: cell-based or functional assay.
Gp96 receptor (heat shock protein 90 kDa beta (Grp94 or Gp96), member 1 [Homo sapiens]) (Homo sapiens), sequence (P14625 22-803 limits assumed): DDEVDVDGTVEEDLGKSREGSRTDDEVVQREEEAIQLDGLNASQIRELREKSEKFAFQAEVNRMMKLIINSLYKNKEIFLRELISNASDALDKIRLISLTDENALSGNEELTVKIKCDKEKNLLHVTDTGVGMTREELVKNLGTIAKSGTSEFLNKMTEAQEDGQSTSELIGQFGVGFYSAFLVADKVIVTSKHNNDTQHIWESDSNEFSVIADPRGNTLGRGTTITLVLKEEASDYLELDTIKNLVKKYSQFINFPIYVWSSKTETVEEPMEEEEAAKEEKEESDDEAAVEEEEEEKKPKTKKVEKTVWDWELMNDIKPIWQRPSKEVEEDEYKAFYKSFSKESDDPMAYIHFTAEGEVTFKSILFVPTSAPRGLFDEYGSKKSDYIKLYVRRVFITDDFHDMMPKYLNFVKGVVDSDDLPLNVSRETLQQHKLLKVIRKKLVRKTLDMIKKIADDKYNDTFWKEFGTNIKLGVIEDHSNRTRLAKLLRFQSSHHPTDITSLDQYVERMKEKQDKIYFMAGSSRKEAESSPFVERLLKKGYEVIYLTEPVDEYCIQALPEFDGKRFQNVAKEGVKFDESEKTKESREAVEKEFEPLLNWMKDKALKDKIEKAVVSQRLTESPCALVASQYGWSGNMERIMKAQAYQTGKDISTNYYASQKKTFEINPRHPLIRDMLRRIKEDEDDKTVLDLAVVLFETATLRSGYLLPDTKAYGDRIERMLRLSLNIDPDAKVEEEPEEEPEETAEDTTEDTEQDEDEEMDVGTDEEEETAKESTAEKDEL

Turning to “OmpA outer membrane protein of E. coli AIEC strain LF82 (from UniProt P0A910 22-346) (ligand)”, the invasion level of the LF82-ΔompA mutant on IEC pretreated with LF82 OMVs, relative to strain LF82 taken as 100% is 85.2% and the residual invasion level of the LF82-ΔompA mutant in Intestine-407 cells compared to wild-type strain LF82 taken as 100% is 56.3%.

Source of the values: patent publication US20130084292A1.
